In patent US20230055408A1 (JIANGSU HENGRUI MEDICINE, published 2023):
Read-outs that look alike come from different tables or passages of the source.

T1: human CEA protein on the cell surface (human, UniProt P06731 35-685)
T1 construct: whole, on cells; also called CEACAM-5; CD66e
T1 sequence (looked up): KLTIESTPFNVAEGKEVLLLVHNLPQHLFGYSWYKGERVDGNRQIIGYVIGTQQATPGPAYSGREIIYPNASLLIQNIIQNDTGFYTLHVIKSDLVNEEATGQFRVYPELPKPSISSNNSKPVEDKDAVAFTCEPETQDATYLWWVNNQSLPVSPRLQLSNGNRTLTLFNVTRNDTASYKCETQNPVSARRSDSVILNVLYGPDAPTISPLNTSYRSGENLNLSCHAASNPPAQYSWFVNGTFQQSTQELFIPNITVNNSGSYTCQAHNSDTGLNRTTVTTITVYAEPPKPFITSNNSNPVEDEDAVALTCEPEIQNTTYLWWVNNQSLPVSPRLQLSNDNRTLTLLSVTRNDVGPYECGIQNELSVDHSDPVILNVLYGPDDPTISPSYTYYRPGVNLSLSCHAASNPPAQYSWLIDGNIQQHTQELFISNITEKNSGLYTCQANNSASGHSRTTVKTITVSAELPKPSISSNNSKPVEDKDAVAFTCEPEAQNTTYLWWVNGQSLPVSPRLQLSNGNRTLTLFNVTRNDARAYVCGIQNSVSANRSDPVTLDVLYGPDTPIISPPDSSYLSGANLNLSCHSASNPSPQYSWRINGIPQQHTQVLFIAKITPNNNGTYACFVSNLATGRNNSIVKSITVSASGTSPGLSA

T2: monkey CEA expressed on CHO cell surface (cynomolgus monkey)
T2 construct: also called cynoCEA-CHO; monkey CEA proteins on the cell surface
T2 chain: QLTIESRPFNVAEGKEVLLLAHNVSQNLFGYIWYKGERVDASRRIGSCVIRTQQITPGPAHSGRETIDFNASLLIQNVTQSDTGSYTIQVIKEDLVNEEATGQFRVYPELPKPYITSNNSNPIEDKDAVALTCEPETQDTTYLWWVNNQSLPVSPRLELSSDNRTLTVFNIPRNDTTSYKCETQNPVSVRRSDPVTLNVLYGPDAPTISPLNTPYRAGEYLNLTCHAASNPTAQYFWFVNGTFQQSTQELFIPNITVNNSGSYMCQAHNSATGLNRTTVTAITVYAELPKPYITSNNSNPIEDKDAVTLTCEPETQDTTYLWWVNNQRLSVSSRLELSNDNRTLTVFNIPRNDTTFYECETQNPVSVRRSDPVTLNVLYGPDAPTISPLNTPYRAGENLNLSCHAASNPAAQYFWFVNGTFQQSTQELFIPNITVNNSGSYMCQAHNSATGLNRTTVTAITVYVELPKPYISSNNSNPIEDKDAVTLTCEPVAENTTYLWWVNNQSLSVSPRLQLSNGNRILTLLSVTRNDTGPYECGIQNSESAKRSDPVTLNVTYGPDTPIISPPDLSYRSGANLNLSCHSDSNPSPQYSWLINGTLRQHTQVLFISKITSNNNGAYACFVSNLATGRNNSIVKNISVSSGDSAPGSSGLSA

T3: human CEACAM1 expressed on CHO cell surface (human, UniProt P13688 35-526)
T3 construct: also called CEACAM1-CHO
T3 sequence: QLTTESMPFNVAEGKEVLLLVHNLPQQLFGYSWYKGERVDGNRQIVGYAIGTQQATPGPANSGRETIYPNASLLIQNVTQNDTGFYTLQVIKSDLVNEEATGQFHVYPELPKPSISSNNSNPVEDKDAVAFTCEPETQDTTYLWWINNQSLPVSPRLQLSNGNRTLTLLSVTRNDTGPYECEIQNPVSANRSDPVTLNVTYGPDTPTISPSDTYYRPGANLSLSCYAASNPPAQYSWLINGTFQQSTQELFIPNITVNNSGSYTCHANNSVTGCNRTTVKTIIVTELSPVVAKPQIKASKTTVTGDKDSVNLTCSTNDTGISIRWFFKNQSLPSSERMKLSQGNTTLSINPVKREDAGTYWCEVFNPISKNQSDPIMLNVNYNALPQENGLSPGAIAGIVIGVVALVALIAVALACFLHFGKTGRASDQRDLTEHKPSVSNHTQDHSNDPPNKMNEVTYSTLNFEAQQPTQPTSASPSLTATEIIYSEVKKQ

T4: human soluble CEA (human, UniProt P06731 35-685, limits assumed)
T4 construct: also called sCEA
T4 sequence (looked up): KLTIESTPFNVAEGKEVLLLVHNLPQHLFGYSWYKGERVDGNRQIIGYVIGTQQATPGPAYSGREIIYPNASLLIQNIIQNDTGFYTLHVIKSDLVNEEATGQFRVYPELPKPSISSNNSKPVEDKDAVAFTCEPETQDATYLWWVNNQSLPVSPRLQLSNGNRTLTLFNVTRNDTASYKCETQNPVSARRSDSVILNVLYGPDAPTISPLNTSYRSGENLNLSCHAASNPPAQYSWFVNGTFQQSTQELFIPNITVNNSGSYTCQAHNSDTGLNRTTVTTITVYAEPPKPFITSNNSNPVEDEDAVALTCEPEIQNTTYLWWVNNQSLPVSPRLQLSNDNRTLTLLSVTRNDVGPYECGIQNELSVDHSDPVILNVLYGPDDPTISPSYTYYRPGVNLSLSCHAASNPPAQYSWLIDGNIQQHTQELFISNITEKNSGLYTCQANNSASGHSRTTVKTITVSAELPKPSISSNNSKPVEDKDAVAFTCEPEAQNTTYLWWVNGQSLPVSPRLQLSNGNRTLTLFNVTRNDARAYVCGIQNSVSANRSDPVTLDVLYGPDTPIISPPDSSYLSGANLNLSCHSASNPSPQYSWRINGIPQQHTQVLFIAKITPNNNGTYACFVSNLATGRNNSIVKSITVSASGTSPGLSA


Key:
[1] = biological target: T1, human CEA protein on the cell surface; assay: FACS, MKN45 cells, -/+ 5 ug/mL sCEA as competitor
Description: The gradient-diluted antibody and the pre-incubated mixed solution of the antibody and sCEA was added into each well. The plate was incubated at 4° C. for 60 min and centrifuged, and the supernatant was removed. The cells were washed twice with pre-cooled PBS containing FBS at final concentration 10%. 50 μL of 1:200 diluted secondary antibody Alexa Fluor@488 goat anti-human IgG (H+L) (Lifetechologies, Cat #A11013) was added. […] The cells were washed twice with 250 μL of pre-cooled PBS with FBS at final concentration 10%. 100 μL of pre-cooled PBS was added to each well to resuspend the cells. The suspension was analyzed by a flow cytometer (FACS) (BD, FACSverse) for fluorescence signal values.

[2] = biological target: T2, monkey CEA expressed on CHO cell surface; assay: FACS, cynoCEA-CHO cells
[3] = biological target: T3, human CEACAM1 expressed on CHO cell …; assay: FACS, CEACAM1-CHO cells
[4] = biological target: T1, human CEA protein on the cell surface; assay: FACS, MKN45 cells
[5] = biological target: T2, monkey CEA expressed on CHO cell surface; assay: FACS, cynoCEA-CHO cells
human soluble CEA = biological target: T4, human soluble CEA; assay: SPR (Biacore T200), antibody captured, soluble CEA as analyte, 1:1 Langmuir
Description: The affinity of a test humanized antibody for human and monkey soluble CEA was determined using a Biacore (GE, T200) instrument. According to the method in the instructions of a human antibody capture kit (GE, Cat #BR-1008-39), the human antibody capture antibody was covalently conjugated to a biosensor chip CM5 (GE, Cat #BR-1005-30) of the Biacore instrument to affinity-capture a certain amount of the test antibody, then a series of concentration gradients of soluble CEA antigens were allow to flow through the surface of the chip, and reaction signals were detected in real time using Biacore, so that an association and dissociation curve was obtained. After each cycle of dissociation was completed, the biochip was washed and regenerated with a regeneration solution prepared in the human antibody capture kit. The data obtained from the experiment were fitted with the (1:1) Langmuir model using BIAevaluation version 4.1 software to obtain affinity values.

[6] = biological target: T3, human CEACAM1 expressed on CHO cell …; assay: FACS, CEACAM1-CHO cells; remark: listed apart in the source
[7] = biological target: T1, human CEA protein on the cell surface; assay: FACS, MKN45 cells; remark: listed apart in the source

| Binder | maximum ratio of fluorescence signals (absence of sCEA / presence of sCEA) [1] | EC50 [2] | binding result [3] | EC50 [4] | EC50 [5] | Kd (human soluble CEA) | binding result [6] | EC50 [7] | binding result [5] |
| --- | --- | --- | --- | --- | --- | --- | --- | --- | --- |
| mAb47 (antibody, V domains shown, Murine hybridoma antibody) VH: QIQLVQSGPELKKPGETVKISCKASGYTFTTYGMSWVKQAPGKGLKWMGWINTYSGVPTYADDFKGRFAFSLETSASTAYLQINNLKNEDTATYFCARRGNYGRWDFDVWGTGTTVTVSS VL: EIVLTQSPALMAASPGEKVTITCSVSSTISSSNLHWYQQKSETSPKPWIYGTSNLASGVPVRFSGSGSGTSYSLTISSMEAEDAATYYCQQWSIYPLTFGAGTKLELK |  | 1.66 nM | no binding | 2.1 nM |  |  |  |  |  |
| Hu47-14 (antibody, human IgG1, kappa, V domains shown, Humanized IgG1/kappa; h47VH4 + h47VL2) VH: EVQLVQSGSELKKPGASVKVSCKASGYTFTTYGMSWVKQAPGQGLKWMGWINTYSGVPTYASDFKGRFVFSLDTSVSTAYLQISSLKAEDTAVYYCARRGNYGRWDFDVWGQGTTVTVSS VL: EIVLTQSPDFQSVTPKEKVTITCSVSSTISSSNLHWYQQKPDQSPKPLIYGTSNLASGVPSRFSGSGSGTDYTLTINSLEAEDAATYYCQQWSIYPLTFGQGTKLEIKR |  |  |  |  | 2.7 nM | 1430 nM | no binding | 4.19 nM |  |
| Hu63-13 (antibody, human IgG1, kappa, V domains shown, Humanized IgG1/kappa; h63VH5 + h63VL1) VH: EVQLVQSGAEVKKPGASVKVSCKASGYTFTDFYMNWVRQAPGQGLEWMGDIFPKSGNTDYNRKFKDRVTMTRDTSTSTVYMELSSLRSEDTAVYYCARSGYGNYVFDYWGQGTLVTVSS VL: DIQMTQSPSSLSASVGDRVTITCRTSQDINIYLNWYQQKPGKAPKLLIYYRSGLLSGVPSRFSGSGSGTDFTLTISSLQPEDFATYYCQQGNTLPPTFGGGTKVEIKR |  |  |  |  | 1.71 nM | 144 nM | no binding | 2.93 nM |  |

Now from value to binder:

| maximum ratio of fluorescence signals (absence of sCEA / presence of sCEA) [1] | EC50 [2] | binding result [3] | EC50 [4] | EC50 [5] | Kd (human soluble CEA) | binding result [6] | EC50 [7] | binding result [5] | Binder |
| --- | --- | --- | --- | --- | --- | --- | --- | --- | --- |
| 1.02 | 0.71 nM | no binding | 3.94 nM |  |  |  |  |  | mAb103 (antibody, V domains shown, Murine hybridoma antibody) VH: QIQLVQSGPELKKPGETVKISCKASGYTFTTYGVIWVKQAPGKGLKWMGWINTYSGVPTYADDFKGRFAFSLETSASTAFLQINNLKNEDTATYFCARKKTLTTVTPWFAYWGQGTLVTVSA VL: DLVVTQSSSASFSLGASAKLTCTLSSQHSTYTIEWYQQQPLKPPKYVMELKKDGSHSTGDGIPDRFSGSSSGADRYLTISNIQPEDEAIYICGVGNTIKEQFVYVFGGGTKVTVL |
| 1.43 | 2.88 nM | no binding | 3.62 nM |  |  |  |  |  | mAb63 (antibody, V domains shown, Murine hybridoma antibody) VH: EVQLQQSGPELVKPGASVKMSCKASGYTFTDFYMNWVRQSHGKSLEWIGDIFPKNGNTDYNRKFKDKATLTVDKSSNTVYMEFRSLTLEDSAIYFCARSGYGNYVFDYWGQGTIFTVSS VL: DVQMTQTPSALSASLGDRVTISCRTSQDINIYLNWYQQKPDGTVKLLIYYRSGLLSGVPSRFSGSGSGTDYSLTISNLEPEDIATYFCQQGNTLPPTFGGGTKLEIK |
|  |  |  |  |  | 5.93 nM | no binding | 2.45 nM | no binding | Labetuzumab (antibody, human IgG1, kappa, V domains shown, Positive control antibody; also called Lmab; antibody in Lmab-CL2A-SN38) VH: EVQLVESGGGVVQPGRSLRLSCSASGFDFTTYWMSWVRQAPGKGLEWIGEIHPDSSTINYAPSLKDRFTISRDNAKNTLFLQMDSLRPEDTGVYFCASLYFGFPWFAYWGQGTPVTVSS VL: DIQLTQSPSSLSASVGDRVTITCKASQDVGTSVAWYQQKPGKAPKLLIYWTSTRHTGVPSRFSGSGSGTDFTFTISSLQPEDIATYYCQQYSLYRSFGQGTKVEIKR |
|  | 6 nM | no binding | 1.9 nM |  |  |  |  |  | mAb67 (antibody, V domains shown, Murine hybridoma antibody) VH: EVQLQQSGPELVKPGASVKIYCKASGYTFTDYHMNWVKQSHGKSLEWIGDINPDIGGTSYNQNFKGKATLTVDKSSSTAYMELRSLTSEDSAVYYCSRWDFDSFANWGQGTLVTVSA VL: DIVMTQSPASLAMSLGKRATISCRASESVSIIGTNLIHWYQQKPGQPPKLLIYHASNLETGVPARFSGSGSGADFTLTIDPVEGDDVALYYCLQSRKIPYTFGGGTKMEIK |
